T1: B7H3 antigen on the surface of A375 cells (human, UniProt Q5ZPR3 29-534)
T1 construct: whole, on cells
T1 sequence (looked up): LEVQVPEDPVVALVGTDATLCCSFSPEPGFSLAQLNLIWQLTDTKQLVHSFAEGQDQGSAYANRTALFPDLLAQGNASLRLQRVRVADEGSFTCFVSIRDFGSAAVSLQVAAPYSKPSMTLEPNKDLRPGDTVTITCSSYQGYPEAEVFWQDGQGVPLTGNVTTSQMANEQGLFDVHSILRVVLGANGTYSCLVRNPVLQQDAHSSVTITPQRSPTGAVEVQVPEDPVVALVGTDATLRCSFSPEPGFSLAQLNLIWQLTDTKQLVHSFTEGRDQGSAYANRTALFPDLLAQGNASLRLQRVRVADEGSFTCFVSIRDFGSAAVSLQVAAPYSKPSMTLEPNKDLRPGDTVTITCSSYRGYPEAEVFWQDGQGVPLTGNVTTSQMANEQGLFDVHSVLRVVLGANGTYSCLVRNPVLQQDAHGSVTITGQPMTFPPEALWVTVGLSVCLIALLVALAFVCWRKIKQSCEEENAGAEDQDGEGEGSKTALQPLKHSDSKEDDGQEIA

T2: recombinant human DLL3 protein (Kactus Biosystems, Cat. No. DLL-HM103) (human, UniProt Q9NYJ7 27-492, limits assumed)
T2 construct: Bought protein coated on the ELISA plate; also called Human DLL3 proteins
T2 sequence (looked up): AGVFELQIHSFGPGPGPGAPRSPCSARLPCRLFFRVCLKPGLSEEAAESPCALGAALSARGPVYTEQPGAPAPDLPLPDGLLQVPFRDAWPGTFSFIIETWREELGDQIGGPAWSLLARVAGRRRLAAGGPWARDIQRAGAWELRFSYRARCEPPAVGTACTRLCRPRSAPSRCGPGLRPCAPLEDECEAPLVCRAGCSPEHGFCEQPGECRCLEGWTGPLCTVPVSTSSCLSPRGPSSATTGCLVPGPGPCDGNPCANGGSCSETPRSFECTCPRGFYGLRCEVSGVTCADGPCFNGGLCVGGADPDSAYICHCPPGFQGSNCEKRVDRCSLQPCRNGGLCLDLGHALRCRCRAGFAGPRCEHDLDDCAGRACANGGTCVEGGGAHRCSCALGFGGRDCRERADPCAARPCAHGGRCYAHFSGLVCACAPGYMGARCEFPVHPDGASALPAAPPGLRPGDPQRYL

B1: Farletuzumab (antibody, human IgG1, kappa)
heavy: not shown
light: DIQLTQSPSSLSASVGDRVTITCSVSSSISSNNLHWYQQKPGKAPKPWIYGTSNLASGVPSRFSGSGSGTDYTFTISSLQPEDIATYYCQQWSSYPYMYTFGQGTKVEIKRTVAAPSVFIFPPSDEQLKSGTASVVCLLNNFYPREAKVQWKVDNALQSGNSQESVTEQDSKDSTYSLSSTLTLSKADYEKHKVYACEVTHQGLSSPVTKSFNRGEC
notes: Naked anti-FRα antibody
B2: F-ADC55-1-8 (antibody, human IgG1, kappa)
heavy: not shown
light: B1 light
modifications: linker-drug LD55-1 (exatecan payload) conjugated to sulfhydryls of reduced interchain disulfide cysteines; average DAR 7.6 per antibody
notes: Antibody-drug conjugate: farletuzumab + LD55-1, DAR 7.6
B3: Farletuzumab-FcS (antibody, human IgG1, kappa, L234A L235A)
heavy: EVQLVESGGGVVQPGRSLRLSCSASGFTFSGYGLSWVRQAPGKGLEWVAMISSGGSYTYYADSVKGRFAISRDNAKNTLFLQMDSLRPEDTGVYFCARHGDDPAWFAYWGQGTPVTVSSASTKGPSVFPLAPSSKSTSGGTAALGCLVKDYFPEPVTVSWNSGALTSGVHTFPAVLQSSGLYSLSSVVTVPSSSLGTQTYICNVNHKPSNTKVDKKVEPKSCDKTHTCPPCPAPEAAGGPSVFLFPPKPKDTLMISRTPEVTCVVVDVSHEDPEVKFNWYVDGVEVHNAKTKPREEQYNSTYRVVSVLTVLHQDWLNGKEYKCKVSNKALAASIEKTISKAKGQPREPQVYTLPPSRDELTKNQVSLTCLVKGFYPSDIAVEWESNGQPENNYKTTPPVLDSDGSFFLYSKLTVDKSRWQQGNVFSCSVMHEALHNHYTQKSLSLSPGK
light: B1 light
notes: also called Farletuzumab-FS
B4: DSADC (antibody, V domains shown)
VH: QVQLVQSGAEVKKPGSSVKVSCKASGYTFTNYVMHWVRQAPGQGLEWMGYINPYNDDVKYNEKFKGRVTITADESTSTAYMELSSLRSEDTAVYYCARWGYYGSPLYYFDYWGQGTLVTVSS
VL: EIVLTQSPATLSLSPGERATLSCRASSRLIYMHWYQQKPGQAPRPLIYATSNLASGIPARFSGSGSGTDFTLTISSLEPEDFAVYYCQQWNSNPPTFGQGTKVEIKR
modifications: control linker-drug per CN104755494A conjugated to the antibody; average DAR 3.9 per antibody
notes: Control anti-B7H3 ADC; the tie of DSADC to M30 is by position and a drawing only; also called M30 antibody conjugate
B5: B-ADC55-1-6 (antibody, human IgG1, kappa, L234A L235A, V domains shown)
VH: QVQLVQSGAEVKKPGASVKVSCKASGYTFTDYFMNWVRQAPGQGLEWMGDVNPKTGSPSYNQKFKGRVTMTRDTSTSTVYMELSSLRSEDTAVYYCARRYGFLYSMDYWGQGTSVTVSS
VL: DIQMTQSPSSLSASVGDRVTITCRASQDISNYLNWYQQKPGKAVKVLIYYTSRLHSGVPSRFSGSGSGTDFTFTISSLQPEDIATYYCQQGNTHPFTFGGGTKVEIKR
modifications: linker-drug LD55-1 (exatecan payload) conjugated to sulfhydryls of reduced interchain disulfide cysteines; average DAR 5.7 per antibody
notes: Antibody-drug conjugate: 43B + LD55-1, DAR 5.7
B6: B-ADC2-1-6 (antibody, human IgG1, kappa, L234A L235A, V domains shown)
VH: B5 VH
VL: B5 VL
modifications: linker-drug LD2-1 (exatecan payload) conjugated to sulfhydryls of reduced interchain disulfide cysteines; average DAR 5.6 per antibody
notes: Antibody-drug conjugate: 43B + LD2-1, DAR 5.6
B7: B-ADC12-1-6 (antibody, human IgG1, kappa, L234A L235A, V domains shown)
VH: B5 VH
VL: B5 VL
modifications: linker-drug LD12-1 (exatecan payload) conjugated to sulfhydryls of reduced interchain disulfide cysteines; average DAR 6.0 per antibody
notes: Antibody-drug conjugate: 43B + LD12-1, DAR 6.0
B8: 33B (antibody, human IgG1, kappa, L234A L235A, V domains shown)
VH: QVQLVQSGAEVKKPGASVKVSCKASGYTFTDYYMKWVRQAPGQRLEWMGAFNLNNGDTFYNQKFKGRVTITRDTSASTAYMELSSLRSEDTAVYYCARDVYGYGDYWGQGTSVTVSS
VL: DIVMTQSPDSLAVSLGERATINCRASKSVSTSGYSYMHWYQQKPGQPPKLLIYLASNLDSGVPDRFSGSGSGTDFTLTISSLQAEDVAVYYCQHSRELPYTFGGGTKLEIKR
notes: Naked anti-DLL3 antibody
B9: D-ADC55-1-8 (antibody, human IgG1, kappa, L234A L235A, V domains shown)
VH: B8 VH
VL: B8 VL
modifications: linker-drug LD55-1 (exatecan payload) conjugated to sulfhydryls of reduced interchain disulfide cysteines; average DAR 8.0 per antibody
notes: Antibody-drug conjugate: 33B + LD55-1, DAR 8.0
B10: D-ADC12-1-8 (antibody, human IgG1, kappa, L234A L235A, V domains shown)
VH: B8 VH
VL: B8 VL
modifications: linker-drug LD12-1 (exatecan payload) conjugated to sulfhydryls of reduced interchain disulfide cysteines; average DAR 8.0 per antibody
notes: Antibody-drug conjugate: 33B + LD12-1, DAR 8.0
B11: D-BATADC (antibody, human IgG1, kappa, L234A L235A, V domains shown)
VH: B8 VH
VL: B8 VL
modifications: control linker-drug BATLD conjugated to the antibody; average DAR 7.7 per antibody
B12: D-ADC2-1-8 (antibody, human IgG1, kappa, L234A L235A, V domains shown)
VH: B8 VH
VL: B8 VL
modifications: linker-drug LD2-1 (exatecan payload) conjugated to sulfhydryls of reduced interchain disulfide cysteines; average DAR 8.0 per antibody
notes: Antibody-drug conjugate: 33B + LD2-1, DAR 8.0

The binders below were run against T3, FOLR1 antigen (Sino Biological, Cat. No. 11241-H08H) (UniProt P15328 25-233) (assay: ELISA, FOLR1 coated at 0.1 µg/mL, anti-human IgG-HRP detection).
T3 construct: Bought protein coated on the ELISA plate; also called FRα
T3 sequence (P15328 25-233 limits assumed): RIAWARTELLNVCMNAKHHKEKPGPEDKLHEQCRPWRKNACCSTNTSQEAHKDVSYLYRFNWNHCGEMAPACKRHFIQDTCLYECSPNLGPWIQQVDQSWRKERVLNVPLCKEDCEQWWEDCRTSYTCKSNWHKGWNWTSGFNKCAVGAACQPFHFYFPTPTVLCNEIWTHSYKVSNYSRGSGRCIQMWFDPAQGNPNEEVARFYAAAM

Point of comparison: B1, EC50 26.1 pM. Against it:
- B2 — within 1.5-fold, 36.9 pM
- B3 — within 1.5-fold, 19.9 pM

These binders were tested against T1, B7H3 antigen on the surface of A375 … (assay: flow cytometry (MFI) on B7H3-positive A375 cells, anti-human Alexa Fluor 488).

Point of comparison: B6, EC50 0.0416 µg/mL. Against it:
- B4 — 2.2-fold higher, 0.0925 µg/mL
- B5 — within 1.5-fold, 0.0378 µg/mL
- B7 — within 1.5-fold, 0.04 µg/mL

What follows are binders tested against T2, recombinant human DLL3 protein (Kactus …) (assay: ELISA, human DLL3 coated at 0.1 µg/mL, absorbance at 450 nm).

Point of comparison: B10, EC50 5.84 pM. Against it:
- B8 — 3.1-fold lower, 1.87 pM
- B9 — within 1.5-fold, 6.28 pM
- B11 — within 1.5-fold, 5.27 pM
- B12 — within 1.5-fold, 4.64 pM

Point of comparison: B12, Emax 2.5. Against it:
- B8 — the same, 2.5
- B9 — the same, 2.5
- B10 — higher, 2.6
- B11 — higher, 2.6
